From patent publication US20250296971A1, “GASTRIC INHIBITORY PEPTIDE RECEPTOR LIGANDS” (priority 2021, published 2025) come the findings set out here.

Experiment [1] has as its target human Gastric Inhibitory Peptide Receptor (human) (UniProt P48546). The experiment is described as follows: FACS competition with GIP-057 on CHO-K1-hGIPR cells; pIC50 category A: >8.0.
The target of experiment [2] is biotinylated extracellular domain of the human GIP receptor (bioGIPR) (human) (UniProt P48546). The experiment is described as follows: SPR single cycle kinetics, bioGIPR captured on chip; category B: pKD 8.1-9.0.
For experiment [3] the target is unchanged. The experiment is described as follows: SPR single cycle kinetics, bioGIPR captured on chip; category A: t1/2 >15 min.
The target of experiment [4] is human Gastric Inhibitory Peptide Receptor (GIPR) (human) (UniProt P48546). The experiment is described as follows: FACS competition vs biotinylated GIP-057 on CHO-K1-hGIPR cells; category D: pIC50 <=6.0.

*1 amine or outer side, *2 acyl side, *3 side chain or, on linkers, in order; H or OH if unused. Bridges are numbered along the chain shown (N, C = ends). Primed or numbered codes have the meaning given here. [ ]: non-standard residue; d: D form. The star is where a group is joined. Ttds = 1,13-diamino-4,7,10-trioxatridecan-succinamic acid, NCCCOCCOCCOCCCNC(=O)CCC(=O)*; APAc″ = 4-amino-1-carboxymethylpiperidine, NC1CCN(CC(=O)*)CC1; Ttds(4) = 1,13-diamino-4,7,10-trioxatridecan-succinamic acid; DOTA = O=C(O)CN1CCN(CC(=O)O)CCN(CC(=O)*)CCN(CC(=O)O)CC1; Trp(5-Cl) = N[C@@H](Cc1c[nH]c2ccc(Cl)cc12)C(=O)O; Pyridine(2,6-diCH2) = c1cc(C[*:1])nc(C[*:2])c1; Phe(2,4-Cl2) = N[C@@H](Cc1ccc(Cl)cc1Cl)C(=O)O; Trp(7-aza) = N[C@@H](Cc1c[nH]c2ncccc12)C(=O)O; 2Lut″ = 2,6-lutidylidene linking two thiols; Phe(4-Cl) = N[C@@H](Cc1ccc(Cl)cc1)C(=O)O; Phe(2-Cl) = N[C@@H](Cc1ccccc1Cl)C(=O)O; 1Nal = N[C@@H](Cc1cccc2ccccc12)C(=O)O; mXylylene = c1cc(C[*:1])cc(C[*:2])c1; Hyp = O=C(O)[C@@H]1C[C@@H](O)CN1; Cysteamide = C(CS[*:3])N[*:1]; Thp = NC1(C(=O)O)CCOCC1; Dap = NC[C@H](N)C(=O)O; Aib = CC(C)(N)C(=O)O A value given as a limit tells only on which side of the number the result lay.

biotinylated extracellular domain of the human GIP receptor (bioGIPR) (human), sequence (P48546 24-138 limits assumed): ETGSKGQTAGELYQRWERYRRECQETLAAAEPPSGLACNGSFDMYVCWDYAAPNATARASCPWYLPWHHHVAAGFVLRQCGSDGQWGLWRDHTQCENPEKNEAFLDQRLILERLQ
human Gastric Inhibitory Peptide Receptor (human), sequence (P48546 22-466 limits assumed): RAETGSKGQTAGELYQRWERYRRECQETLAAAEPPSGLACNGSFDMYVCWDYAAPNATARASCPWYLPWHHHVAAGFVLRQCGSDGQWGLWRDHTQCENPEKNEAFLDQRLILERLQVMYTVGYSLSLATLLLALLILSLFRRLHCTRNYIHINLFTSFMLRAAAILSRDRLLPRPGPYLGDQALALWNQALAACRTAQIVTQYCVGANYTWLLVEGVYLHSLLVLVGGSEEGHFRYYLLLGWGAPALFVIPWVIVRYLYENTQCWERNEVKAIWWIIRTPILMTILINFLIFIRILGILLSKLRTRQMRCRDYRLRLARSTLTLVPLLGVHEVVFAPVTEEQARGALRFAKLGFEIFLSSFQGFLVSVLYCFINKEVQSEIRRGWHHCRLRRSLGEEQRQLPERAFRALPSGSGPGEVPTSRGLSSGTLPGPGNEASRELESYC

B1: DOTA-APAc-Asp-Trp-5Clw-Hyp-Glu-leu-[Dap(2Lut)-Thp-Leu-Ile-AET] (peptide)
peptide: {DOTA-APAc″}-DW[Trp(5-Cl)][Hyp]E[dL][Dap][Thp]LI[Cysteamide]
modifications: linker (positions not given here) via Pyridine(2,6-diCH2); not fully specified (bridges); printed as DOTA-APAc-Asp-Trp-5Clw-Hyp-Glu-leu-[Dap(2Lut)-Thp-Leu-Ile-AET]
B1 gave a pIC50 in experiment [1] of over 8 pic50. Further, the pKD in experiment [2] lay within 8.1 to 9 pkd. In experiment [3], this molecule returned a t1/2 of over 15 min. In turn, Ac-D[Trp(7-aza)][1Nal]PE[dL]C[Aib]LIC-{Ttds(4)-K(DOTA)-NH2} (linker 7-11 via mXylylene) [Ac-Asp-7Nw-1Ni-Pro-Glu-leu-[Cys(3MeBn)-Aib-Leu-Ile-Cys]-Ttds-Lys(DOTA)-NH2] showed a pIC50 in experiment [4] of under 6 pic50.

Ac-DW[Phe(2,4-Cl2)][Hyp]E[dL]C[Thp]LIC-NH2 (linker 7-11 via Pyridine(2,6-diCH2)) [Ac-Asp-Trp-Egm-Hyp-Glu-leu-[Cys(2Lut)-Thp-Leu-Ile-Cys]-NH2]: the pIC50 in experiment [4] is under 6 pic50.

B2: Ac-Asp-Trp-5Clw-Hyp-Glu-leu-[Cys(2Lut)-Thp-Leu-Arg-Cys]-NH2 (peptide)
peptide: Ac-DW[Trp(5-Cl)][Hyp]E[dL]C[Thp]LRC-NH2
modifications: linker 7-11 via Pyridine(2,6-diCH2)
SMILES: CC(=O)N[C@@H](CC(=O)O)C(=O)N[C@@H](Cc1c[nH]c2ccccc12)C(=O)N[C@@H](Cc1c[nH]c2ccc(Cl)cc12)C(=O)N1C[C@H](O)C[C@H]1C(=O)N[C@@H](CCC(=O)O)C(=O)N[C@H](CC(C)C)C(=O)N[C@H]1CSCc2cccc(n2)CSC[C@@H](C(N)=O)NC(=O)[C@H](CCCNC(=N)N)NC(=O)[C@H](CC(C)C)NC(=O)C2(CCOCC2)NC1=O
In experiment [4], B2 yielded a pIC50 of under 6 pic50.

In experiment [4], Ac-DW[Phe(4-Cl)][Hyp]E[dL]C[Thp]LIC-NH2 (linker 7-11 via 2Lut″) [Ac-Asp-Trp-Pcf-Hyp-Glu-leu-[Cys(2Lut)-Thp-Leu-Ile-Cys]-NH2] registered a pIC50 of under 6 pic50. Still for that read-out and setting: for {DOTA-Ttds}-[Trp(5-Cl)]PE[dL]DWCIL[Aib][Cysteamide] (linker 7-11 via mXylylene) [DOTA-Ttds-5Clw-Pro-Glu-leu-Asp-Trp-[Cys(3MeBn)-Ile-Leu-Aib-AET]] the value was under 6 pic50.

B3: Ac-Asp-Trp-5Clw-Hyp-Glu-leu-[Cys(2Lut)-Thp-Leu-Glu-Cys]-NH2 (peptide)
peptide: Ac-DW[Trp(5-Cl)][Hyp]E[dL]C[Thp]LEC-NH2
modifications: linker 7-11 via Pyridine(2,6-diCH2)
SMILES: CC(=O)N[C@@H](CC(=O)O)C(=O)N[C@@H](Cc1c[nH]c2ccccc12)C(=O)N[C@@H](Cc1c[nH]c2ccc(Cl)cc12)C(=O)N1C[C@H](O)C[C@H]1C(=O)N[C@@H](CCC(=O)O)C(=O)N[C@H](CC(C)C)C(=O)N[C@H]1CSCc2cccc(n2)CSC[C@@H](C(N)=O)NC(=O)[C@H](CCC(=O)O)NC(=O)[C@H](CC(C)C)NC(=O)C2(CCOCC2)NC1=O
As for B3, in experiment [4], the pIC50 was under 6 pic50. Still for that read-out and setting: in the case of Ac-DW[Phe(2-Cl)][Hyp]E[dL]C[Thp]LIC-NH2 (linker 7-11 via 2Lut″) [Ac-Asp-Trp-Ocf-Hyp-Glu-leu-[Cys(2Lut)-Thp-Leu-Ile-Cys]-NH2] it was under 6 pic50.
